The data set has as its target T1, yeast topo II (full-length) (Saccharomyces cerevisiae, UniProt P06786 1-1428).
T1 sequence: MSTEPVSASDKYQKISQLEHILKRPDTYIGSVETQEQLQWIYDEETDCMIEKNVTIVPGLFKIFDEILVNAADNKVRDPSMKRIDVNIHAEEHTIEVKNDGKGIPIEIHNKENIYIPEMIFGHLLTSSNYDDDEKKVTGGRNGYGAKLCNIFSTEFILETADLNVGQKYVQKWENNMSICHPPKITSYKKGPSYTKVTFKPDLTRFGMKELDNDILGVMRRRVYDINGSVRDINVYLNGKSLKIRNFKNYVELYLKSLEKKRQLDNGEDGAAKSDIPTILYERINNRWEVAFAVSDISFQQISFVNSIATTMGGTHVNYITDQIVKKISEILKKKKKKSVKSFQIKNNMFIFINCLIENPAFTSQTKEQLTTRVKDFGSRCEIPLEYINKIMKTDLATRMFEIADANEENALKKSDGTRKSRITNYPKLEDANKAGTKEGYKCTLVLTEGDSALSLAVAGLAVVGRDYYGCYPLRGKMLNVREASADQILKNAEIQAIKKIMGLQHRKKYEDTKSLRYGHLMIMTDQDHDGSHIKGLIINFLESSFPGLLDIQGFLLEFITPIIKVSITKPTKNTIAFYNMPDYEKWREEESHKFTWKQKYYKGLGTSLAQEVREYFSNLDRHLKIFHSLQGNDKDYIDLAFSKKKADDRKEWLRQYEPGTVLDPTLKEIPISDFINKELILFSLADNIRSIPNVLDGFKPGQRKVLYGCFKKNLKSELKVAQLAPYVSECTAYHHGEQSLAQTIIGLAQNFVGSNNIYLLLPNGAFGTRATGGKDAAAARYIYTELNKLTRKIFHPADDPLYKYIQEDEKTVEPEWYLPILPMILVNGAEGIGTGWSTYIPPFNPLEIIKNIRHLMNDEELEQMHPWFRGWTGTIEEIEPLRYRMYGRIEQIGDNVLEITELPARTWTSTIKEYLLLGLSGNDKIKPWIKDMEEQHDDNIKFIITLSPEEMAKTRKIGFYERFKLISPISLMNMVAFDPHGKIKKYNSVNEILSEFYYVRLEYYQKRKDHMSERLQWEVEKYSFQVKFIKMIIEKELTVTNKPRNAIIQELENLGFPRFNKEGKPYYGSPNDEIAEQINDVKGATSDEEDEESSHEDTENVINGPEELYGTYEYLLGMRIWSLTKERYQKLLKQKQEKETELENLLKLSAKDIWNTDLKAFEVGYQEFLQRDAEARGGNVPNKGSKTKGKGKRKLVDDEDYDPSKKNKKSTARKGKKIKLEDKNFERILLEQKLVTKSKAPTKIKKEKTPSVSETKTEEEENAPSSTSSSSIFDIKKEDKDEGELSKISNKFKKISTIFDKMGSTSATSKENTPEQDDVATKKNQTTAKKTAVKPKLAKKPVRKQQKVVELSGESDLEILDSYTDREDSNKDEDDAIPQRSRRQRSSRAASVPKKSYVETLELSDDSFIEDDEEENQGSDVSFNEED
Description: EMSA.

B1: 51 bp dsDNA (dsDNA)
DNA 1: TATTTTCTTGTTCTTTTACATCAACACAATGTGACCATTACCTGGTTATCA
DNA 2: TGATAACCAGGTAATGGTCACATTGTGTTGATGTAAAAGAACAAGAAAATA
For orientation: Kd means the concentration at which binding is half-saturated. The low end stands for a tighter complex, the high end for a looser complex. As for B1, the Kd was ~50 nM.

The values above are taken from publication doi:10.64898/2025.12.09.693212.
